# Experimental data taken from patent US20130216549A1 (NOVLMMUNE S A, published 2013).
# T1: recombinant human IP-10 (Peprotech) (human, UniProt P02778 22-98)
# T1 sequence: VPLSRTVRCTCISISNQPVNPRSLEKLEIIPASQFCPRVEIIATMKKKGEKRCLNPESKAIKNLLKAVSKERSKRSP
# T2: NusA-rat IP-10 fusion protein (rat, UniProt P48973 22-98)
# T2 chain: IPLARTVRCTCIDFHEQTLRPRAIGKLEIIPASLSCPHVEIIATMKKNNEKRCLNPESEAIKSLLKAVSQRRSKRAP
# T3: NusA-cynomolgus IP-10 fusion protein (cynomolgus, UniProt Q8MIZ1 22-98 (rhesus entry))
# T3 construct: junction and C-terminal AviTag not spelled out
# T3 sequence: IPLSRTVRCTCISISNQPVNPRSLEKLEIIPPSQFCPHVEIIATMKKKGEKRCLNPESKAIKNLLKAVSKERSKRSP
# B1: CC21R3P1_A2 (scFv format) (scFv, V domains shown)
# VH: QLVESGGGLIQPGGSLRLSCAASGFSVSDTYMNWVRQAPGKGLEWVSSIYSDDSTYYADSVKGRFTISRDNSKNTLFLQINSLRAEDTAVYYCARDKEYVTSTGGAYYYFYYMDVWGQGTLVTVSS
# VL: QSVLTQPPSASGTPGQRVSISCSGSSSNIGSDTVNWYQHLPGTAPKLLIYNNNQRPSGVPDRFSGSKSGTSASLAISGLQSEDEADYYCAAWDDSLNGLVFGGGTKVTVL
# B2: NI-0801 (IgG1-formatted) (antibody, V domains shown)
# VH: QVQLVESGGGVVQPGRSLRLSCAASGFTFSNSGIHWVRQAPGKGLEWVAVISYDGSNKYYADSVKGRFTISRDNSKNTLYLQMNSLRAEDTAVYYCARLRDNAEYTDYWGQGTLVTVSS
# VL: NFMLTQPHSVSESPGKTVTISCTGSGGSIASNYVQWYQQRPGSSPTTVIYEDNQRPSGVPDRFSGSIDSSSNSASLTISGLKTEDEADYYCQSYDPLPVWVFGGGTKLTVLG
# Key:
# [1] = biological target: T1, recombinant human IP-10 (Peprotech); assay: cell-based or functional assay
# [2] = biological target: T2, NusA-rat IP-10 fusion protein; assay: capture ELISA: NI-0801 coated, NusA fusion protein titrated, detected with anti-NusA antibody, fluorescence
# Source text: (§1) Briefly, IP-10 cloned from cDNA isolated from mouse, rat, rabbit and cynomolgus as well as a panel of human chemokines was expressed and purified as described in Example 1.
# [3] = biological target: T3, NusA-cynomolgus IP-10 fusion protein; assay: capture ELISA: NI-0801 coated, NusA fusion protein titrated (CK Conc [M]), detected with anti-NusA antibody, fluorescence
# Source text: as §1
Binder,Calcium flux IC50 (nM); 10 nM hIP-10 [1],Chemotaxis IC50 (nM); 1 nM hIP-10 [1],binding result [2],EC50 (read off the curve) [3]
B1,36 nM,7 nM,,
B2,,,no binding (tested: about 2.5e-7 M),~1 nM
